Among the targets are α (SARS-CoV-2); β (SARS-CoV-2); γ (SARS-CoV-2); ε (SARS-CoV-2); ι (SARS-CoV-2); κ (SARS-CoV-2).
Holding throughout (assay): flow cytometry (Mock 2.5)
On the technique in general: In flow cytometry, cells or beads pass a laser one at a time.

Test [1] addresses SARS-CoV-2 δ variant spike protein, cell-expressed (SARS-CoV-2).

The results in this text go back to patent publication US20240336672A1.

Sequence of Adintrevimab (antibody) (VH): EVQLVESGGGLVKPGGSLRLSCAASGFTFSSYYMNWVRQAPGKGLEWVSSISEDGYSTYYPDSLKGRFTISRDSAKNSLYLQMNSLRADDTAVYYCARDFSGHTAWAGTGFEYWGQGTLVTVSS
Sequence of Adintrevimab (antibody) (VL): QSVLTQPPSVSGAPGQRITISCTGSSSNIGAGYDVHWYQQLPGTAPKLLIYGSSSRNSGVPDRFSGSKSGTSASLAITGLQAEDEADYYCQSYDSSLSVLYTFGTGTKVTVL

For the substance Adintrevimab (antibody), the log10 ΔgMFI was determined as 4.5 in test [1]; 4.3 with α (SARS-CoV-2); 3.9 in the test with β (SARS-CoV-2); 4.5 with γ (SARS-CoV-2); 4.5 with ε (SARS-CoV-2); 4.9 with ι (SARS-CoV-2). In the test with κ (SARS-CoV-2), the log10 ΔgMFI turned out to be 4.8.
As for BAM (antibody), the log10 ΔgMFI in test [1] came to 2.5; with α (SARS-CoV-2), 4.4; with β (SARS-CoV-2) it was 2.5; with γ (SARS-CoV-2), 2.5; in the test with ι (SARS-CoV-2), 2.5; with κ (SARS-CoV-2) it was 3.5.
In the case of CAS (antibody), the log10 ΔgMFI in test [1] worked out at 4.6; with α (SARS-CoV-2), 4.4; with β (SARS-CoV-2) it was 3.1; in the test with ε (SARS-CoV-2) it was 4.6; with ι (SARS-CoV-2), 4.9; with κ (SARS-CoV-2), 4.9.
Cilgavimab (antibody): the log10 ΔgMFI stood at 4.4 with α (SARS-CoV-2), 4.7 with γ (SARS-CoV-2), 4.9 with ι (SARS-CoV-2) and 4.7 in the test with κ (SARS-CoV-2).
With ETE (antibody), the log10 ΔgMFI in test [1] came out at 4.5; in the test with α (SARS-CoV-2), 4.2; in the test with β (SARS-CoV-2), 2.5; with γ (SARS-CoV-2), 2.5; with ε (SARS-CoV-2), 4.5; with ι (SARS-CoV-2), 4.8. Further, the log10 ΔgMFI with κ (SARS-CoV-2) was found to be 4.7.
TIX (antibody): the log10 ΔgMFI was 4.7 in test [1]; 4.5 with α (SARS-CoV-2); 3.9 in the test with β (SARS-CoV-2); 4.6 with γ (SARS-CoV-2); 4.7 with ε (SARS-CoV-2); 4.9 in the test with ι (SARS-CoV-2). This substance yielded a log10 ΔgMFI in the test with κ (SARS-CoV-2) of 4.9.
